Results as given in patent publication US20130295102A1 (Novartis, published 2013).
Changes are numbered by the printed parent chain.

B1: NVS963 (Fab, V domains shown)
VH: EVQLVQSGAEVKKPGSSVKVSCKASGGTFSSYAISWVRQAPGQGLEWMGPINPYYGDAIYAQKFQGRVTITADESTSTAYMELSSLRSEDTAVYYCARYYSDYMDYWGQGTLVTVSS
VL: QSVLTQPPSVSGAPGQRVTISCTGSSSNIGAGYDVHWYQQLPGTAPKLLIHDNSHRPSGVPDRFSGSKSGTSASLAITGLQSEDEADYYCASYDESAHSVFGGGTKLTVLG
notes: Disulfide-bridged Fab; also called Fab NVS963
B2: NVS962 (Fab, V domains shown)
VH: EVQLVQSGAEVKKPGSSVKVSCKASGGTFNSYAISWVRQAPGQGLEWMGRIIPIFGTANYAQKFQGRVTITADESTSTAYMELSSLRSEDTAVYYCARHGGYSFDSWGQGTLVTVSS
VL: SYELTQPPSVSVAPGQTARISCSGDNLGSKYVDWYQQKPGQAPVLVIYSDNNRPSGIPERFSGSNSGNTATLTISGTQAEDEADYYCQTYTSGNNYLVFGGGTKLTVLG
notes: also called Fab NVS962
B3: NVS962-Q (Fab, V domains shown)
VH: B2 VH with N30Q
VL: B2 VL
notes: NVS962 with heavy chain N30 replaced with glutamine (deamidation site removed)
B4: NVS962-S31A (Fab, V domains shown)
VH: B2 VH with S31A
VL: B2 VL
notes: NVS962 with heavy chain serine 31 replaced with alanine
B5: NVS965-S (Fab, V domains shown)
VH: B2 VH with N30S
VL: B2 VL with E3V, Q16K, E80M, Q88A, T91D, G93S, N94P, N95R, Y96T, L97E
notes: NVS965 with heavy chain N30 replaced with serine
B6: NVS962-G (Fab, V domains shown)
VH: B2 VH with N30G
VL: B2 VL
notes: NVS962 with heavy chain N30 replaced with glycine

Legend:
Human Factor P [1] = biological target: T1, Human Factor P (human, UniProt P27918 29-469); experiment: cell-based or functional assay
T1 sequence (P27918 29-469 limits assumed): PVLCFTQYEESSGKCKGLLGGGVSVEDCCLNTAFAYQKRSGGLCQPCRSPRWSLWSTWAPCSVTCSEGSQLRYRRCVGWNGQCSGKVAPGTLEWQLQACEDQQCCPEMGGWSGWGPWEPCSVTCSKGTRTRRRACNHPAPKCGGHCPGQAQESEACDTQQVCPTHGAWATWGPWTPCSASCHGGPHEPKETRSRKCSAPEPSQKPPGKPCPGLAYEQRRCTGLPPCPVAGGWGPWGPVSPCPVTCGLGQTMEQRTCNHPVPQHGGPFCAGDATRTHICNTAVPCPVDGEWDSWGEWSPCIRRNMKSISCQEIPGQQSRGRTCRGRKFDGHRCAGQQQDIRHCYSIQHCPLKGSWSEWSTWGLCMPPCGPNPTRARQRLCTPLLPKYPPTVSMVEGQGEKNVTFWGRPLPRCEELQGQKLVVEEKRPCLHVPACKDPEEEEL

Cynomolgus Factor P [2] = biological target: Cynomolgus Factor P (cynomolgus); experiment: cell-based or functional assay
Human Factor P [3] = biological target: T1, Human Factor P; experiment: Biacore SPR, captured Factor P
Cynomolgus Factor P [4] = biological target: T2, Cynomolgus Factor P (cynomolgus); experiment: Biacore SPR, captured Factor P
T2 construct: Purified from cynomolgus serum for SET/Biacore; Factor P of cynomolgus serum in the functional assays; also called Cyno Factor P; cyno FP

Human Factor P [5] = biological target: T1, Human Factor P; experiment: SET, solution equilibrium titration
Protocol: (§1) In SET, a constant amount of antibody is incubated with different concentrations of antigen until equilibrium is reached. The concentration of free antibody in the equilibrated solution is determined by applying the solution on an antigen coated MSD™ plate (Meso Scale Discovery™) followed by incubation with an ECL-labeled secondary antibody and measurement of signal intensity. At low antigen concentrations, a strong signal is achieved (high concentration of free antibody which binds to the antigen on the plate) whereas for high antigen concentration, the antibody is completely antigen-captured, resulting in a low signal. If a sufficient number of antigen concentrations in a matching range are available, the titration curve allows for a reasonable determination of the affinity, using the appropriate fit model. […] The constant concentration of antibody applied in the assay should be in the range of, or below, the KD (Table 4).
(§2) Human Factor P (Complement Technology cat#: A139) and Cyno Factor P purified from cyno serum (protocol adapted from Nakano, et al., (1986) J Immunol Methods 90:77-83) were coated on standard binding MSD plates (Meso-Scale Discovery, 384-well: MSD cat#: L21XA, 96-well: MSD cat#: L15XA) at 0.2-0.3 μg/ml in 25 μl PBS and incubated overnight at 4° C. Factor P inhibitors were diluted to a fixed concentration (1 pM or 10 pM) in incubation buffer (PBS with 2% BSA (Sigma cat#: A4503) and 1% Tween20 and 1% Triton-X (Sigma cat#: 234729)), and added to a serial dilution of Factor P (human or cyno) in incubation buffer. Samples were allowed to reach equilibrium by incubation at RT overnight. Plates were washed 3× in wash buffer (PBS with 0.05% Tween20), and blocked with 100 μl incubation buffer at RT for 2 hrs. Plates were washed 3× in wash buffer. Sample containing Factor P inhibitors and Factor P titration were added to the plate (25 μl), and incubated at RT for 15 min. Plates were washed 3× in wash buffer. 25 μl detection antibody was added (Anti-Human (Goat) Sulfo-TAG, 1:1000 in incubation buffer, MSD cat#: R32AJ-1), and incubated at RT for 60 min. Plates were washed 3× in wash buffer, and 50 μl of 1×MSD Read buffer T was added (with surfactant, MSD cat#: R92TC-1). Plates were read on a MSD Spector Imager 6000.

Cynomolgus Factor P [6] = biological target: T2, Cynomolgus Factor P; experiment: SET, solution equilibrium titration
Protocol: as §1, §2

Row | Binder | Hemolytic assay IC50 (nM), 10% serum (Human Factor P [1]) | Inhibition of C3a generation, 20% human serum (Human Factor P [1]) | Zymosan-C3b IC50 (nM), 10% serum (Human Factor P [1]) | Hemolytic assay IC50 (nM), 10% serum (Cynomolgus Factor P [2]) | Zymosan-C3b IC50 (nM), 10% serum (Cynomolgus Factor P [2]) | Kd (Human Factor P [3]) | koff (Human Factor P [3]) | kon (Human Factor P [3]) | Kd (Cynomolgus Factor P [4]) | koff (Cynomolgus Factor P [4]) | kon (Cynomolgus Factor P [4]) | Kd (Human Factor P [5]) | Kd (Cynomolgus Factor P [6]) | MAC Deposition, 20% Serum EC50 (Human Factor P [1]) | MAC Deposition, 20% Serum EC50 (Cynomolgus Factor P [2])
1 | B1 | 10.1 nM | 65.1 nM | 2.34 nM | 14.5 nM | 9.75 nM | 0.09 nM | 0.0001 s⁻¹ | 1e+06 M⁻¹ s⁻¹ | 0.17 nM | 0.0002 s⁻¹ | 1e+06 M⁻¹ s⁻¹ | 0.055 nM | 0.115 nM |  | 
2 | B2 | 13.2 nM | 78.4 nM | 2.63 nM | 16.1 nM | 9.91 nM | 0.083 nM | 0.000125 s⁻¹ | 1.52e+06 M⁻¹ s⁻¹ | 0.182 nM | 0.000279 s⁻¹ | 1.53e+06 M⁻¹ s⁻¹ | 0.046 nM | 0.047 nM | 18.8 nM | 12.1 nM
3 | B3 | 15.3 nM |  | 0.64 nM | 14.7 nM | 1.62 nM | 0.496 nM | 0.000311 s⁻¹ | 627000 M⁻¹ s⁻¹ | 0.475 nM | 0.000264 s⁻¹ | 555000 M⁻¹ s⁻¹ | 1.06 nM | 0.93 nM | 23.1 nM | 20.9 nM
4 | B4 | 12.8 nM |  | 1.15 nM | 11.6 nM | 3.12 nM | 0.225 nM | 0.000113 s⁻¹ | 504000 M⁻¹ s⁻¹ | 0.234 nM | 8.7e-05 s⁻¹ | 372000 M⁻¹ s⁻¹ | 0.189 nM | 0.189 nM | 9.96 nM | 7.86 nM
5 | B5 | 7.89 nM |  | 1.39 nM | 12 nM | 1.57 nM | 0.027 nM | 9.9e-05 s⁻¹ | 3.69e+06 M⁻¹ s⁻¹ | 0.06 nM | 0.000163 s⁻¹ | 2.71e+06 M⁻¹ s⁻¹ | 0.051 nM | 0.036 nM | 7.32 nM | 8.12 nM
6 | B6 | 13.4 nM |  | 1.18 nM | 14.2 nM | 2.94 nM | 1.14 nM | 0.00044 s⁻¹ | 387000 M⁻¹ s⁻¹ | 1.08 nM | 0.000339 s⁻¹ | 313000 M⁻¹ s⁻¹ | 0.953 nM | 0.567 nM | 12.7 nM | 9.27 nM
